# Results as given in patent US12618044B2, “Specification of functional cranial placode derivatives from human pluripotent stem cells” (MEMORIAL SLOAN-KETTERING CANCER CENTER, priority 2013, dated 2026).
# Key:
# Format in all cases: cell-based, human
# hESC [1] = assay: Floor plate induction from hESC (FOXA2 expression); settings: for FP competency / FOXA2 induction: added to neural rosette stage cells
# Experimental: (§1) For MS5 induction, established methods previously reported were used (Perrier et al., 2004). Feeder free neural induction was carried out as previously described (Chambers et al., 2009). Briefly, hESCs cultures were disaggregated using accutase for 20 minutes, washed using hESCs media and pre-plated on gelatin for 1 hour at 37° C. in the presence of ROCK inhibitor to remove MEFs. The nonadherent hESCs were washed and plated on matrigel at a density of 20,000 cells/cm2 on matrigel (BD) coated dishes in MEF conditioned hESCs media (CM) spiked with 10 ng/mL of FGF-2 and ROCK-inhibitor. The ROCK inhibitor was withdrawn, and hESCs were allowed to expand in CM for 3 days or until they were nearly confluent. The initial differentiation media conditions included knock out serum replacement (KSR) media with […] TGF-b inhibitor (SB431542, Tocris) and 500 ng/mL of Noggin (R&D). Upon day 5 of differentiation, increasing amounts of N2 media (25%, 50%, 75%) was added to the KSR media every two days while maintaining 500 ng/mL of Noggin and TGF-b inhibitor. For FP induction, Sonic C25II was added at 200 ng/ml. In some experiments, DKK-1 (R&D 100 ng/ml) FGF8 (R&D 50 ng/ml), Wnt-1 (Peprotech 50 ng/ml) and Retinoic Acid (R&D 1 uM) were added.
# Tissue was fixed using 4% paraformaldehyde and Picric acid for 15 minutes, washed with PBS, permeabalized using 0.3% Triton X in PBS, and blocked using 10% Donkey Serum. Primary antibodies used for microscopy included PAX6 (Covance), TUJ1 (Covance), ZO1 (Zymed), BF1 (FOXG1, gift E.Lai), TH (Pelfreez), NKX6.1 (DSHB) and FOXA2 (SantaCruz).
# Based on the hypothesis that FP specification in the mouse occurs at early developmental stages, at the time of or prior to neural induction, the inventors repeated SHH induction studies at Day 9, the time of rosette specification, using classic stromal-feeder mediated neural induction protocols (Elkabetz et al., 2008). Under this paradigm the inventors noticed a drastic change in cell morphology restricted to the cells treated with SHH-C25II (FIG. 15B). […] In addition to decreased expression of BF1 the inventors also observed decreased expression of PAX6, another maker expressed in the AN (FIG. 1E). […] The inventors performed dose response studies to understand how FP marker induction compared to that of NKX6.1 expression; a gene known to respond to lower concentrations of SHH. […] At higher concentrations FP markers rapidly rise, while NKX6.1 expression tapers off (FIG. 15G).
# Using this protocol, in combination with compositions and methods of the present inventions, the inventors aimed to optimize FP differentiation by adding Sonic C25II at different time points during neural induction and assaying for FOXA2 expression. Differentiation was initiated upon NSB exposure, and Sonic C25II was added at Day 1, Day 3, Day 5, or Day 7 (FIG. 16A). […] Furthermore, the differentiation conditions establish a robust platform for inducing human FOXA2+ cells in vitro.
# hESC [2] = assay: Real-Time PCR of pluripotency and germ layer markers in treated hESC
# Experimental: There is also evidence for suppression of alternative embryonic germ layers such as Noggin-mediated suppression of SOX17 (endodermal lineage) and SB431542-mediated suppression of Brachyury (mesodermal lineage) (FIG. 1C).
# Total RNA was extracted using an RNeasy kit (Qiagen). For each sample, 1 ug of total RNA was treated for DNA contamination and reverse transcribed using the Quantitect RT kit (Qiagen). Amplified material was detected using Quantitect SYBR green probes and PCR kit (Qiagen) on a Mastercycler RealPlex2 (Eppendorf). Results were normalized to a HPRT control and are from 4-6 technical replicates of 2-3 independent biological samples at each data point.
# hESC derived FP = assay: A/P respecification of hESC derived FP by caudalizing factors
# Experimental: as §1
# The inventors contemplated the use of SIX6 as a putative marker of anterior FP identity. Thus SIX6 status of the hESC derived FP was used to mark respecification in response to known caudalizing agents such as FGF8, Wnt-1, and Retinoic Acid. Each of these caudalizing factors was added in combination with SHH and the resulting tissue was assessed for expression of the FP markers FOXA2 and NETRIN-1, the AN marker BF1, and putative anterior FP marker SIX6. FP generation was found not compromised in the presence of caudalizing factors.
# The inventors discovered that different factors had varied effects on marker expression (FIG. 20C).
# As mentioned above, studies had identified different enhancers that directed SHH expression to different A/P region along ventral axis (Jeong et al., 2008). […] In the absence of caudalizing factors (SHH C25II alone), LacZ expression was observed herein following transfection with the SBE2 but not the SBE1 enhancer supporting the hypothesis that hESC derived FP is anterior by default (FIG. 20D). In contrast SBE2 activity was abolished upon treatment with Wnt1 or FGF8 while SBE1 activity was induced under these conditions.
# hESC [3] = assay: Placode induction from hESC (N-SB versus PIP, SIX1 expression); settings: pre-placode cells
# Experimental: A timed withdrawal of the BMP inhibitor Noggin during N-SB differentiation was also tested to determine if placodal fates could be induced via derepressing endogenous BMP signaling. A time course analysis was performed during which Noggin was removed at different time points of the N-SB protocol (FIG. 28A).
# Withdrawal of the BMP inhibitor noggin during N-SB differentiation may enhance the emergence of placodal fates by de-repressing endogenous BMP signaling. To this end, a time course study was performed by removing noggin at different time points of the NSB protocol (FIG. 11A) while monitoring the induction of placodal marker (FIG. 11B) trophoectodermal, neurectodermal by qRT-PCR analysis at day 11 of differentiation. Withdrawal of noggin at day 2 or 3 of differentiation yielded efficient induction of Six1 while noggin withdrawal at day 1 of differentiation lead to the induction of Eya1 in the absence of Six1 expression.
# Neural Induction and placode induction: Feeder-free neural induction was carried out as previously described (Chambers et al., 2009). Briefly, hESCs cultures were disaggregated using accutase for 20 minutes, washed using hESCs media and pre-plated on gelatin for 1 hour at 37° C. in the presence of ROCK inhibitor to remove MEFs. The non-adherent hESCs were washed and plated on matrigel at a density of 60,000 cells/cm2 on matrigel (BD) coated dishes in MEF conditioned hESCs media (CM) spiked with 10 ng/mL of FGF-2 and ROCK-inhibitor. The ROCK inhibitor was withdrawn after 24 hours, and hESCs were allowed to expand in CM for 2 days or until they were 95% confluent. The initial differentiation media conditions included knock out serum replacement (KSR) media with 10 μM TGF-β inhibitor (SB431542, Tocris) and 250 ng/mL of Noggin (R&D). Upon day 5 of differentiation, increasing amounts of N2 media (25%, 50%, and 75%) were added to the KSR media every two days while maintaining […] of Noggin and TGF-β inhibitor. Similar results could be obtained when using KSR-free conditions (E6 medium (Chen et al., 2011)) following adjustments in BMP signaling; data not shown). For placode induction, Noggin was removed at day3 of differentiation. In some experiments, BMP-4 (R&D 50 ng/ml), Noggin (R&D 250 ng/ml), DKK-1 (R&D 100 ng/ml), FGF8 (R&D 50 ng/ml), SU5402 (Tocris 10 μM), Wnt-3a (R&D 50 ng/ml), DAPT (Tocris, 10 μM), CHIR99021 (Stemgent, 3 μM), Cyclopamine (Tocris, 10 μM), Sonic Hedgehog (C25II-R&D 100 ng/ml), and Purmorphamine (Stemgent, 1 μM), were added.
# Microscopy, antibodies, and flow cytometry: Cells were fixed using 4% paraformaldehyde for 15 minutes, washed with PBS, permeabilized using 0.3% Triton X in PBS, and blocked using 1% BSA. Primary antibodies used for microscopy included PAX6 (Covance, DSHB), TUJ1 (Covance), BRN3A (Chemicon), AP2a (DSHB), HNK1 (Sigma), PAX3 (DSHB), SIX1 (ABR, Atlas), ISL1 (DSHB), PERIPHERIN (Santa Cruz), GSU (gift A. McNeilly), CRYAB (Chemicon), DACH1 (Proteintech), EYA1 (gift Kawakami), E-CADHERIN (Abcam), FSH (gift A. McNeilly), GATA2 (Abcam), chick GFP (Abcam), hNCAM (Santa Cruz), GLUTAMATE (Sigma), KRT14 (Labvision), SIX6 (Atlas), LHX3 (Abcam), OVOL2 (Aviva), TFAP2A (DSHB), FOXG1 (gift E. Lai), hCA (Stem Cells), and Ki67 (Sigma). Appropriate Alexa 488, Alexa 568, Alexa 647 secondary antibodies (Molecular Probes) and/or DAPI counterstaining was used for visualization. For Flow Cytometry, cells were mechanically dissociated after exposure to accutase for 20 min at 25° C. To eliminate dead cell populations in FACS analysis, we used DAPI or 7-AAD according to manufacturer's recommendation. Cells were analyzed using FACScan (Becton Dickinson) and FlowJo software (Tree Star, Inc.).
# [4] = in combination with Sonic C25II
molecule,measurement,setting,value
"O=C1Nc2cc(Br)ccc2/C1=C1/Nc2ccccc2/C1=N\O [BIO, reference compound]",FOXA2 expression,"hESC [1]; added early, BIO 100 nM",increase
same,FP competency / FOXA2 induction,hESC [1],not sufficient
"NC(=O)c1ccc(-c2nc(-c3ccc4c(c3)OCO4)c(-c3ccccn3)[nH]2)cc1 [SB431542, 4-[4-(1,3-benzodioxol-5-yl)-5-(2-pyridinyl)-1H-imidazol-2-yl]-benzamide]",Brachyury (mesodermal lineage),hESC [2],suppression
same,CDX2 expression,hESC [2],dramatic increase
same,Nanog expression,hESC [2],rapid loss
Noggin,CDX2 expression,hESC [2],Suppression
same,SOX17 (endodermal lineage),hESC [2],suppression
"Wnt-1: caudalizing factor, wingless-type MMTV integration site family, member 1 (protein, UniProt P04628 28-370, looked up) Proto-oncogene Wnt-1: ANSSGRWWGIVNVASSTNLLTDSKSLQLVLEPSLQLLSRKQRRLIRQNPGILHSVSGGLQSAVRECKWQFRNRRWNCPTAPGPHLFGKIVNRGCRETAFIFAITSAGVTHSVARSCSEGSIESCTCDYRRRGPGGPDWHWGGCSDNIDFGRLFGREFVDSGEKGRDLRFLMNLHNNEAGRTTVFSEMRQECKCHGMSGSCTVRTCWMRLPTLRAVGDVLRDRFDGASRVLYGNRGSNRASRAELLRLEPEDPAHKPPSPHDLVYFEKSPNFCTYSGRLGTAGTAGRACNSSSPALDGCELLCCGRGHRTRTQRVTERCNCTFHWCCHVSCRNCTHTRVLHECL",midbrain FP markers CORIN and NOV,hESC derived FP,significant increase
same,SBE1 activity,hESC derived FP; SHH enhancer LacZ construct,induced
same,SBE2 activity,hESC derived FP; SHH enhancer LacZ construct,abolished
same,BF1 expression,hESC derived FP; in combination with SHH,dramatic reduction
same,FP production based on FOXA2 and Netrin-1 expression,hESC derived FP; in combination with SHH,significantly potentiated
same,SIX6 expression,hESC derived FP; in combination with SHH,significant reduction
same,FP competency / FOXA2 induction,hESC [1],not sufficient
same,FP competency / FOXA2 induction,hESC [1]; listed as WNT1,no effect
"DKK-1: recombinant DKK-1, Wnt signaling inhibitor (protein, UniProt O94907 32-266, looked up) Dickkopf-related protein 1: TLNSVLNSNAIKNLPPPLGGAAGHPGSAVSAAPGILYPGGNKYQTIDNYQPYPCAEDEECGTDEYCASPTRGGDAGVQICLACRKRRKRCMRHAMCCPGNYCKNGICVSSDQNHFRGEIEETITESFGNDHSTLDGYSRRTTLSSKMYHTKGQEGSVCLRSSDCASGLCCARHFWSKICKPVLKEGQVCTKHRRKGSHGLEIFQRCYCGEGLSCRIQKDHHQASNSSRLHTCQRH",FOXA2+ cells,"hESC [1]; added along with SHH at Day1, 9 days of SHH exposure",increase
same,BF1 transcript,hESC [1]; [4],more rapid rise
same,FOXA2 message and protein,hESC [1]; [4],decrease
"Wnt3A: WNT protein, caudalizing cue (protein, UniProt P56704 19-352, looked up) Protein Wnt-3a: SYPIWWSLAVGPQYSSLGSQPILCASIPGLVPKQLRFCRNYVEIMPSVAEGIKIGIQECQHQFRGRRWNCTTVHDSLAIFGPVLDKATRESAFVHAIASAGVAFAVTRSCAEGTAAICGCSSRHQGSPGKGWKWGGCSEDIEFGGMVSREFADARENRPDARSAMNRHNNEAGRQAIASHMHLKCKCHGLSGSCEVKTCWWSQPDFRAIGDFLKDKYDSASEMVVEKHRESRGWVETLRPRYTYFKVPTERDLVYYEASPNFCEPNPETGSFGTRDRTCNVSSHGIDGCDLLCCGRGHNARAERRREKCRCVFHWCCYVSCQECTRVYDVHTCK",otic placode compatible population,hESC [3],induction of a population of cells coexpressing SIX1 and SOX10
same,FP competency / FOXA2 induction,hESC [1],not sufficient
